Results published in patent US20260234655A1, “Nuclear Targeted DNA Delivery and Compositions for Use in Practicing the Same” (Seawolf Therapeutics, Inc., priority 2022, published 2026).
Entries after “also recorded” stand apart in the source; their conditions may differ.

How the values were obtained:
[1] = test system: growth-arrested HepG2 cells; experiment: Arrayed DTS screen in growth-arrested HepG2 cells; GFP intensity by live-cell imaging; format: cell-based; settings: 24 h post-transfection
Excerpt: DNA construct design. Each DTS was constructed in pentameric repeat using a 15 bp spacer between each TFBS. The DTS was appended just 5′ to the promoter, effectively in a putative enhancer region. Various promoters were employed in these constructs, including CBh (a variant of the CAG promoter) and TTR. Several reporter genes were employed in these constructs, including enhanced Green Fluorescent Protein (eGFP). The polyadenylation (polyA) signal is a BGH-PolyA sequence. For pooled screening, unique molecular identifiers (UMIs; also known as barcodes) were used to distinguish between DNA constructs in a pool, and the UMIs were appended to the 3′UTR immediately downstream of the stop codon of eGFP, just preceding the BGH-PolyA sequence.
Cell culture. HepG2 cells were plated into a 384-well plate and grown for 48 hours to achieve confluency. Cell media was removed and replaced with culture media supplemented with Aphidicolin (1 uM) using EL406 automated plate washer and dispenser, then cells were transfected with DTS containing 17.5 ng plasmids using Lipofectamine 3000 without supplement. Expression of GFP was monitored using a Biotek Cytation 5 cell imaging reader over 24 hours to evaluate DTS activity. Total GFP per well was calculated and averaged over 4 well replicates.
pDNAs containing various DTSs (Table 12) were transfected individually into growth-arrested HepG2 cells. Cell growth was inhibited to prevent dissolution of the nuclear envelope. GFP expression was quantified over a period of 24 h post-transfection by measuring GFP intensity using quantitative live-cell imaging. Statistical analysis and hierarchical clustering methods were used to easily differentiate strong DTSs from weak DTSs in a heatmap (FIG. 5A). […] DTS.203: CREB1, PPARA, ONECUT1, HNF4A, PPARA. DTS.233: HNF1A, NR113, PPARA, HNF1A, PPARA. DTS.276: FOXA1, HNF4A, HNF1A, HNF4A, HNF1A.
For the arrayed screen, pDNAs containing various DTSs were transfected individually into growth-arrested HepG2 cells. For the pooled screen, pDNAs containing various DTSs were pooled together and transfected as a pool into growth-arrested HepG2 cells. Cell growth was inhibited to prevent dissolution of the nuclear envelope, which improves the accuracy of measuring DTS activity related to nuclear translocation. For the arrayed screen, GFP protein expression was quantified 24 h post-transfection by measuring GFP intensity using quantitative live-cell imaging. For the pooled screen, mRNA abundance for each DTS variant was determined using RNA-seq by deconvoluting the read counts for each UMI. A strong correlation between protein expression in the arrayed screen and mRNA expression in the pooled screen was observed (FIG. 6). […] Pooled screening can thus be used to quickly and reliably identify strong DTSs.

[2] = test system: growth-arrested HepG2 cells; experiment: Pooled DTS screen in growth-arrested HepG2 cells; mRNA abundance by RNA-seq of UMIs; format: cell-based
Excerpt: Library cloning. Pooled DTS libraries were designed as described above. To ensure the highest quality library production of oligos for cloning, oligo lengths were standardized to 300 bp. To accommodate this standardized length the core sequence of each DTS was embedded center-justified in a neutral fragment of random DNA sequence. The flanks of each oligo contained unique golden gate restriction enzyme digestion sites (Bsal) for cloning of double stranded DNA into screening vectors. […] The proper UMI/DTS barcode correlation (termed here the “library registry”) was determined via excision of the hTTR/eGFP fragments, re-ligation of the vector, PCR amplification of the corresponding proximal DTS and UMI regions, and sequencing on an Illumina Miseq (2×150 bp reads). […]
Quantification of mRNA abundance from pooled DTS screens. […] The PCR amplified cDNA was then library prepped (NEBNext library prep for Illumina) and sequenced on an Illumina Miseq (2×150 bp reads). Counts for each UMI were translated into the corresponding DTS using the UMI/Barcode registry and changes in abundance of each DTS were statistically analyzed using a custom R script. The log 2 fold change is calculated by comparing the RNA level in the pool vs. its expected abundance, which is derived from the abundance in the corresponding input DNA pool. […]

B1: DTS.276: combinatorial DTS: FOXA1, HNF4A, HNF1A, HNF4A, HNF1A binding sites (nucleic acid)
DNA: TGTTTACTTTAGATTACTACTGATATCGAGCGCAGGTCAAAGGTCACCTGCAGATTACTACTGATAGGTTAATAATTAACAGATTACTACTGATATCGAGCGCTGGGCAAAGGTCACCTGCAGATTACTACTGATAAGTATGGTTAATGATCTACAG
GFP intensity / gene expression in arrayed screen compared to Spacer negative control [1]: performed equivalently or better than NFKB

B2: DTS.203: combinatorial DTS: CREB1, PPARA, ONECUT1, HNF4A, PPARA binding sites (nucleic acid)
DNA: CTGACGTCAGAGATTACTACTGATACAAAACTAGGTCAAAGGTCAAGATTACTACTGATAGTCTGCTAAGTCAATAATCAGAATAGATTACTACTGATACGCCCCAGCACACATGATCAGAAGATTACTACTGATAAGGTCAAAGGTCA
GFP intensity / gene expression in arrayed screen compared to Spacer negative control [1]: performed equivalently or better than NFKB

B3: DTS.233: combinatorial DTS: HNF1A, NR1I3, PPARA, HNF1A, PPARA binding sites (nucleic acid)
DNA: GGTTAATAATTAACAGATTACTACTGATACCTCTTCTCTGTGGGTGACCAGCGTCCTAAGATTACTACTGATAAACTAGGTCAAAGGTCAAGATTACTACTGATAAGTATGGTTAATGATCTACAGAGATTACTACTGATACAAAACTAGGTCAAAGGTCA
GFP intensity / gene expression in arrayed screen compared to Spacer negative control [1]: performed equivalently or better than NFKB; also recorded: robust increases
mRNA abundance in pooled screen relative to Spacer negative control [2]: robust increases
